Reference: the supplement of paper PMC7125110
± gives the standard error. Fewer inactive variants are shown than the library holds.

B1: glmS ribozyme (parent)
chain: AUAAAAGCGCCAGAACUACAGAAAUGUAGUUGACGAGGAGGAGGUUUAUCGAAUUUUCGGCGGAUGCCUCCAAA

Variants of: B1
Test: self-cleavage kobs at 2500 uM GlcN6P; higher = faster cleavage; RNA array
Settings: with glucosamine-6-phosphate
Method in brief: (§1)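 The measurements used barcoded ribozyme variants on sequenced MiSeq chips, transcribed in situ by E. coli RNA polymerase and tracked at 37 °C with a hybridised Cy3 probe. Glucosamine-6-phosphate, 40 μM to 10 mM in HEPES/KCl/Mg(OAc)2 buffer, was flowed in while tiles were imaged over ~14 h. Baseline-normalised signals, also normalised to non-cleaving reference variants, gave per-tile medians that were fit to one- or two-exponential decays for kobs. kcat and KM resulted from weighted Michaelis–Menten fits across concentrations.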

Going from AUAAAAGCGUCAGAACUACAGAAAUGUACUUGACGAGGAGGAGGUUUAUCGAAUUUUCGGCCGAUGCCUCCAAA [C10U G29C G62C] to AUAAAAGCGCCAGAACUACAGAAAUGUAGUUGACGAGGAGGAGGUUUAUCGAGUUUUCGGCGGGUGGCUCCAAA [A53G A64G C67G], the “self-cleavage kobs at 2500 uM GlcN6P” value rises from < 1e-05 s⁻¹ to 0.000335 ± 9.1e-05 s⁻¹.

Going from AUAAAAGCGCCAUAACUACAGAAAUGUAGUUGACGAGGAAGAGGUUUAUCGAGUUUUCGGCGGAUGCCUCCAAA [G13U G40A A53G] to AUAAAAGCGCCAGCACUACAGAAAUGUAGUUGGCCAGCAGGAGAUUUUUUGAAUUUUCGGCGGAUGCCUCCAAA [A14C A33G G35C G38C G44A A48U C50U], the “self-cleavage kobs at 2500 uM GlcN6P” value falls from 0.000153 ± 3.6e-05 s⁻¹ to < 1e-05 s⁻¹.

First: AUAAAAGCGCUAGAACUACAGAAAUGUAAUUGACGAGGAGGAGGUUUAGCGAAUUUUCGGCAGAUGGCUCCAAA [C11U G29A U49G G62A C67G]
Second: AUAAAAGCGCCAGAACUACAGAACUUUAGUUGACGAGGAUGAGGUUUAUCGAAUUUUCGGCGGAUGCCUCCAAA [A24C G26U G40U]
The “self-cleavage kobs at 2500 uM GlcN6P” value of the first is lower: < 1e-05 s⁻¹ for the first, 0.00202 ± 0.00051 s⁻¹ for the second.

Going from AUAAAAGCUCCAGAACUACAGAAAUGUAGUUGACGAGGAGGAGGUUUAUAUAAUUUUCGGCGGAUGCGUCCAAA [G9U C50A G51U C68G] to AUAAAAGCGCCAGAACUACAGAAAUGUAGUUGACGAAGAGGAGGUUUAUCGAUUGUUCGGCGGAUGCCUCCAAA [G37A A53U U55G], the “self-cleavage kobs at 2500 uM GlcN6P” value falls from 0.00198 ± 0.00067 s⁻¹ to 0.000444 ± 9.3e-05 s⁻¹ (4.5-fold).

Going from AUAAAAGCACCAGAACUACAGAAAUGUAGUUGACGAGGAGGUGGUUUAUCGAAUUUUCGGCGGAUGCCUCCAAA [G9A A42U] to AUAAAAGCGCCUGAAUUACAGAAAUGUAGUUGACGAGGAGGAGGUUUAUCGAAUUUUCGGCGGAUGCCUACAAA [A12U C16U C70A], the “self-cleavage kobs at 2500 uM GlcN6P” value rises from < 1e-05 s⁻¹ to 0.000361 ± 0.00013 s⁻¹.

AUAAAAGCGCCAGCCCUACAGAAAUGUAGUUGACGAGUAGGAGGUUUAUCGAAUUUUCGGCGGAUGCCUCCAAA [A14C A15C G38U] and AUAAAAGCGCCAGAACUACAGAAAUGUAGUUGUCGAGGACGAGGUGUAUUGAAUUUUCGGCGGAUGCCUCCAAA [A33U G40C U46G C50U] cannot be ordered by “self-cleavage kobs at 2500 uM GlcN6P” value: < 1e-05 s⁻¹ for the first, < 1e-05 s⁻¹ for the second.

AUAAAAGCGGAAGAACUACAGAAAUGUAGUUGCCGUGGAGGAGGUUUAUCGUCUUAUCGGCUGAUGCCUCCAAA [C10G C11A A33C A36U A52U A53C U56A G62U] and AUAAAAGCACCAGAACUACAGAAAUGUAGUUGACGACCAGGAGGUUUAUCGAAUUUUCGGCGGAUGCCUCCAAA [G9A G37C G38C] cannot be ordered by “self-cleavage kobs at 2500 uM GlcN6P” value: < 1e-05 s⁻¹ for the first, < 1e-05 s⁻¹ for the second.

Compared with AUAAAAGCGCCAGAACUACAGAAAUGUAGUUGACGAGUAGGAGGGUUAUCAAAUUUUCGGCGGAUGUCUCCAAA [G38U U45G G51A C67U], AUAAAAGCGCAAGCACUACAGAAAUGUAGUUGACGAGGAGGAGGUUUAUCGAAUUUUCGGCGGAUGCCUUCAAA [C11A A14C C70U] is higher in “self-cleavage kobs at 2500 uM GlcN6P” value: < 1e-05 s⁻¹ for the first, 7.46e-05 ± 2.7e-05 s⁻¹ for the second.

Compared with AUAAAAGCGCCAGAACUACAGAAAUGUAGUUGACGAGAAGGAGGUUUAUGGGAUUUUCGGCGGAUGCCUCCAAA [G38A C50G A52G], AUAAAAGGGCCAGAAGUACAGAAAUGUAGUUGACGAGGACGAGGUUUAUCGAAUUUUCGGCGGAUGCCUCCAAA [C8G C16G G40C] is lower in “self-cleavage kobs at 2500 uM GlcN6P” value: 4.75e-05 ± 1.6e-05 s⁻¹ for the first, < 1e-05 s⁻¹ for the second.

AUAAAAGCGCCAGAACUACAGAAAUGUAGUUGACCAGGAGGAGGUCUAUCGCACUUUCGGCGGAUGCCUCCAAA [G35C U46C A52C U54C] and AUAAAAGCGCCAGAACUACAGAAAUGUAGUUGAGCAGGAGGAGGUUUAUCCAAUUUGUGGCGGAUGCCUCCAAA [C34G G35C G51C U57G C58U] cannot be ordered by “self-cleavage kobs at 2500 uM GlcN6P” value: < 1e-05 s⁻¹ for the first, < 1e-05 s⁻¹ for the second.

Compared with AUAAAAGCGCCAGAACUACAGAAAUGUAGUUGACGAGGAGGAGUUGUAUCGAAUUUUCGGCGGAUGACUCCAAA [G44U U46G C67A], AUAAAAGCGCCAGAACUACAGAAAUUUAGUUGACGAGGAGGAGGUUUAUCGAAUUUUCGGCGGAUUCCUCCAAA [G26U G66U] is 4.9-fold lower in “self-cleavage kobs at 2500 uM GlcN6P” value: 0.00376 ± 0.00093 s⁻¹ for the first, 0.000774 ± 0.00023 s⁻¹ for the second.

AUAAAAGAGCCAGAACUACAGAAAUGUAGUUGACGGGGAGGAGGUUUAUCGAGUUUUCGGCGGAUGCCUCCAAA [C8A A36G A53G] and AUAAAAGCGCAGGAACUACAGAAAUGUAGUUGACGAGGAGGAGUUUUAUCGAAUUUUCGGCGGAUGCCUCAAAA [C11A A12G G44U C71A] cannot be ordered by “self-cleavage kobs at 2500 uM GlcN6P” value: < 1e-05 s⁻¹ for the first, < 1e-05 s⁻¹ for the second.

AUAAAAGCGCCAGAACUACAGAAAUGUAGUUGACGAGGAGUACGUUUAUCUAAUUUUCGGCGGAUGCGUCCAAA [G41U G43C G51U C68G] and AUAAAAGCGCCAGAACUACAGAAAUGUAGUUGACGAGGAGGAUAUUUAUUGAAUUUUCGGGGGAUGCCUCCAAA [G43U G44A C50U C61G] cannot be ordered by “self-cleavage kobs at 2500 uM GlcN6P” value: < 1e-05 s⁻¹ for the first, < 1e-05 s⁻¹ for the second.

AUAAAAGCGCCAGAAGUACAGAAAUGUAGUUUACGAGGAGGAGAUUUAUCGAAUUUUCGACGGAUGCCUCCAAA [C16G G32U G44A G60A] and AUAAAAUCGCCAGAACUACAGAAAUGUAGUUGACGAGGUGGAGGUUUAUAGAAUUUUCGGCGGAUGCCUCCAAA [G7U A39U C50A] cannot be ordered by “self-cleavage kobs at 2500 uM GlcN6P” value: < 1e-05 s⁻¹ for the first, < 1e-05 s⁻¹ for the second.

First: AUAAAAGCGCCAGAAUUACAGAAAUGUAGGUAACGAGGAGGAGGUUUAUCGAAUUUUCGGCGGAUGCUUCCAAA [C16U U30G G32A C68U]
Second: AUAAAAGCGCCAGAACUACAGAAAUGUAGUUGCCGAGGAGGAGGUUUAUCGAUGUUUCGGCGGAUGCCUCCAAA [A33C A53U U54G]
The “self-cleavage kobs at 2500 uM GlcN6P” value of the first is 2.2-fold lower: 7.75e-05 ± 3.2e-05 s⁻¹ for the first, 0.000173 ± 4.3e-05 s⁻¹ for the second.

First: AUAAAAGCGCCAGAACUACAGAAAUGUAGUUGACGAGGAGCGGGUUUAUCGAAUUUUCGGCGGAUGCCUACAAA [G41C A42G C70A]
Second: AUAAAAGCGCCAGACCUACAGAAAUGUAGUGGACGAGGAGGAGGUUUAUCGAAUUUUCCGCGGAUGCCUCCAAA [A15C U31G G59C]
The “self-cleavage kobs at 2500 uM GlcN6P” value of the first is higher: 6.34e-05 ± 1.5e-05 s⁻¹ for the first, < 1e-05 s⁻¹ for the second.

AUAAAAGCGCCAGAACUACAGAAAUGUAGUUGGUGAGGAGGAGGUUUAACGAAUUUUCGGCGGAUGCCUCCAAA [A33G C34U U49A] and AUAAAAGCGCCAGAACUACAGAAAUGUAGUUGACGAGGAGGUGGUUUAUCGAGUUUUCGGGGGAUGCCUCCAAA [A42U A53G C61G] cannot be ordered by “self-cleavage kobs at 2500 uM GlcN6P” value: < 1e-05 s⁻¹ for the first, < 1e-05 s⁻¹ for the second.

In the case of AUAAAAGCGUCAGAACUACAGAAAUGUAGUUGACGAGGAGGAGGUUGAUCGUAUUUUCGGCGGAUGCCACCAAA [C10U U47G A52U U69A], the “self-cleavage kobs at 2500 uM GlcN6P” value is reported as 7.36e-05 ± 3.5e-05 s⁻¹.

Variants of: B1
Test: self-cleavage kobs at 10000 uM GlcN6P; higher = faster cleavage; RNA array
Settings: with glucosamine-6-phosphate
Method in brief: as §1

In order of falling “self-cleavage kobs at 10000 uM GlcN6P” value:
1. AUAAAAGCGCCAGAACUACAGAACUUUAGUUGACGAGGAUGAGGUUUAUCGAAUUUUCGGCGGAUGCCUCCAAA [A24C G26U G40U]  0.00158 ± 0.00035 s⁻¹
2. AUAAAAGCGCCAGAAUUACAGAAAUGUAGGUAACGAGGAGGAGGUUUAUCGAAUUUUCGGCGGAUGCUUCCAAA [C16U U30G G32A C68U]  0.000157 ± 5.1e-05 s⁻¹
